One assay relates to CD11c^− microglia. In words: Apoptotic neuron (AN) uptake and CD11c^- to CD11c^+ differentiation of microglia with αVβ3 / TAM receptor inhibitors. Format: cell-based, mouse. To be noted: P5 B6-WT CD11c^− microglia, 72 h with pHrodo-labeled ANs 1:1; cilengitide 10 μM, LDC1267 1 μM. The text has this: (A) Brain single cell suspensions of 9-mo old WT mice were generated for validation of microglial CD11c expression by flow cytometry. We first gate on CD11b^+ cells from single/live cells followed by subsequent gating of CD11b^+CD45^low populations as potential microglia. […] In contrast, CCR2 but not Tmem 119 expression is detected in the CD11b^+CD45^high fraction, i.e., putative macrophage populations. Analysis of the CD11b^+CD45^low microglial population using FMO negative controls for these FACS plots confirms specificity. […] (B) The proportion of CD11c^+ microglia in C57BL/6 (B6) mice during early development and normal aging (n=3) was determined by flow cytometry analysis. CD11c^+ microglia were initially present at late embryonic day (E18.5), peaked at early postanal day (P5) and gradually declined to marginal levels in young adulthood (3-mon) followed by re-emergence and further expansion during aging. (C) CD11c^− microglia were isolated from P5 B6-WT mice by negative section with anti-CD11c magnetic beads (purity >99%) followed by co-incubation×72 h in the presence or absence of pHrodo fluorescent dye-labeled apoptotic neurons (ANs) at a 1:1 ratio. After 72 h incubation, 23% of total CD11c^− microglia had ingested ANs (AN^+), of which 77.4% of these AN^+ microglia were CD11c^+. […] Expression of CD11c was assessed in CD86^+ or MHC II^+ activated microglia. […]

For assay [1], the target named is osteopontin (OPN) produced by mouse microglia (mouse) (UniProt P10923). Kind of assay: intracellular flow cytometry, SSC against OPN, microglia stained with the isotype control (the legend says only 'Isotype control'; genotype of this panel not labelled) [b].
UniProt P10923, sequence (P10923 17-294 limits assumed): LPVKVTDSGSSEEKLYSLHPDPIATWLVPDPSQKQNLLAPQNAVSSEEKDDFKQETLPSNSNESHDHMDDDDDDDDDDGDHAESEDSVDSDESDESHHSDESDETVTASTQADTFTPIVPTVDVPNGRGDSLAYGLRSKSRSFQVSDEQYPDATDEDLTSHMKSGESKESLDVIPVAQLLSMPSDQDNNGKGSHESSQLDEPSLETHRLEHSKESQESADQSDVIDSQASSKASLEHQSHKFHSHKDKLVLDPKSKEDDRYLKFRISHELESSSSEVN
The target is the same in assay [2]. In words: intracellular flow cytometry, SSC against OPN, microglia of 9-mo mice stained with the isotype control 1:10 (genotype of this panel not labelled). For orientation: In flow cytometry, cells or beads pass a laser one at a time.
Assay [3] has as its target CD11b on microglia from 5XFAD mice (mouse) (UniProt P05555). In words: flow cytometry, AF488-CD11b fluorescence, microglia from 5XFAD mice; isotype control histogram (top trace) [B].
UniProt P05555, sequence (P05555 17-1153): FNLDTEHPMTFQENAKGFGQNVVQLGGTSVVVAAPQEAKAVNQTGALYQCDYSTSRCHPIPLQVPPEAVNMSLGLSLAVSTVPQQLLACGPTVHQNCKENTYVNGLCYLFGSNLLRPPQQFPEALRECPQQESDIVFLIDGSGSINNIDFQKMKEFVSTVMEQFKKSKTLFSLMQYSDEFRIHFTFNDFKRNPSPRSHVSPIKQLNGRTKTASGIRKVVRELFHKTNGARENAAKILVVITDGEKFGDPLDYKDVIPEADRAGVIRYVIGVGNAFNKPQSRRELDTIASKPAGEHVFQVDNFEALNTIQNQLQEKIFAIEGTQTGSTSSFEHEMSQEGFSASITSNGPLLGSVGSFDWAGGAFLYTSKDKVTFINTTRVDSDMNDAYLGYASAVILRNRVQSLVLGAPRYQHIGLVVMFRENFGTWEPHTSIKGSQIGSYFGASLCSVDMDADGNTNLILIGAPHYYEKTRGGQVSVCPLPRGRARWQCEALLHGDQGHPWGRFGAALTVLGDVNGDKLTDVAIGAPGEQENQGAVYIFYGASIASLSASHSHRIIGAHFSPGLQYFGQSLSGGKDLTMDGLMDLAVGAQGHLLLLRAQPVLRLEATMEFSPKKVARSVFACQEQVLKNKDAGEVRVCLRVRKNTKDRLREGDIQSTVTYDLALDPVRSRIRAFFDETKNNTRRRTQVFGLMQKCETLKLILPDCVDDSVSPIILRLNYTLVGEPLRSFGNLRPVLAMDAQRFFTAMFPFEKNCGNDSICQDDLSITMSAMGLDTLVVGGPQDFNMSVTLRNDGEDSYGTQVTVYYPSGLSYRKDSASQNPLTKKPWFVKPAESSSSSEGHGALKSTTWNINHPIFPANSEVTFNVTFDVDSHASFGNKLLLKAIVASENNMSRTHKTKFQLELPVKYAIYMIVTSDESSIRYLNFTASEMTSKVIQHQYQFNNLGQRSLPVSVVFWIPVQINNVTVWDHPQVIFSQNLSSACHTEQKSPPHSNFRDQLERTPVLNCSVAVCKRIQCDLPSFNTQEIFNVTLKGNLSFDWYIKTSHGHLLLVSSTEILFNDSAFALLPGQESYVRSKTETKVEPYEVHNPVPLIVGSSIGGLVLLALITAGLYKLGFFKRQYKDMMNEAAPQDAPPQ

The source of these data is US20250381277A1, “COMPOSITIONS AND METHODS FOR TREATMENT OF NEUROLOGICAL DISORDERS” (Dana-Farber Cancer Institute, Inc., priority 2022, published 2025).

Take `CCOc1cn(-c2ccc(F)cc2C)nc1C(=O)Nc1ccc(Oc2ccnc3cc(OC)c(OC)cc23)c(F)c1` [LDC1267]: in the assay on CD11c^− microglia, the “reduction of AN uptake by CD11c^− microglia” value is reported as “about 50%”.
Molecule “isotype control (PE-conjugated goat IgG) (antibody)” showed a number printed in the OPN+ gate (frequency of OPN+ microglia) in assay [1] of 0.25%. The number printed over the OPN+ gate (frequency of OPN+ microglia) in assay [2] amounted to 0.4%.
Isotype (antibody) returned a CD11b+ microglia (%) in assay [3] of 0.4%.
